Patent publication US20020045192A1, “Arf and HDM2 interaction domains and methods of use thereof” (St. Jude Children's Research Hospital, priority 2001, published 2002)

T1: mArfN37 (Mus musculus, UniProt Q64364)
T1 construct: An N-terminal fragment of mouse p19^Arf corresponding to residues 1-37 (mArfN37) was purified in a similar manner; made in house
T1 sequence (Q64364 1-37 limits assumed): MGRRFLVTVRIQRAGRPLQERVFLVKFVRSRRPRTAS

T2: GFP-p19^Arf (Mus musculus, UniProt Q64364)
T2 construct: expressed in transfected cells; host or cells: NIH 3T3 Arf-/- cells
T2 sequence (Q64364 1-169): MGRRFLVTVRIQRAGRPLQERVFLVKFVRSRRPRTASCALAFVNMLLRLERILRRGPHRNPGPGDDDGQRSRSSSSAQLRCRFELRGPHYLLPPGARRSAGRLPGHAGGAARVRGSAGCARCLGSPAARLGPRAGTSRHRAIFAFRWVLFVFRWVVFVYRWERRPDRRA

B1: Hdm2 210-275: Fragment of Hdm2 corresponding to residues 210-275 of SEQ ID NO:8 (protein, listed as Homo sapiens)
chain: SSSSESTGTPSNPDLDAGVSEHSGDWLDQDSVSDQFSVEFEVESLDSEDYSLSEEGQELSDEDDEV
B2: Hdm2 277-350: Texas Red labeled Hdm2 deletion construct containing residues 277-350 (protein)
chain: QVTVYQAGESDTDSFEEDPEISLADYWKCTSCNEMNPPLPSHCNRCWALRENWLPEDKGKDKGEISEKAKLENS

Experiments:
[1] = molecular target: T1, mArfN37; assay: SPR binding of Hdm2 constructs and Hdm2 peptides to immobilized His-tagged mArfN37; settings: His-mArfN37 captured by covalently linked His antibody
Experimental: Binding studies were performed using a Biacore 3000 surface plasmon resonance (SPR) instrument (Biacore, Inc.). A Tetra-His™ Antibody (Qiagen, Inc.; Cat. #34670) was covalently attached to a carboxymethylated gold surface (C-1 chip; Biacore, Inc.). The carboxymethyl groups on the surface were activated with N-ethyl-N′-(3-dimethylaminopropyl) carbodiimide (EDC) and N-hydroxysuccinimide (NHS) and the antibody was attached at pH 7.4 in 20 mM sodium phosphate buffer, 150 mM NaCl (PBS). Reactive sites remaining on the surface were blocked by reaction with ethanolamine. […] Binding was measured by flowing the non-His-tagged analyte through the reference and ligand-containing flow cells in sequence. […] Changes in the SPR response due to solvent differences and the injection process were monitored by injection of HBS-N buffer alone. […]
It has been previously shown that a fragment of mouse p19^Arf containing the N-terminal 37 amino acids (mArfN37) can (i) bind Hdm2, (ii) cause the relocalization of Hdm2 to nucleoli, and (iii) induce cell cycle arrest in MEFs [see, U.S. patent application Ser. No. 09/480,718, Filed Jan. […] However, because mArfN37 is a relatively small polypeptide, it was determined whether it could bind a correspondingly small segment of Hdm2. […]

[2] = molecular target: T2, GFP-p19^Arf; assay: Nuclear microinjection and live cell imaging of Texas Red labeled Hdm2 constructs in NIH 3T3 cells lacking Arf; format: cell-based; settings: NIH 3T3 Arf-/- cells, nuclear microinjection
Experimental: Proteins for fluorescence microimaging studies were covalently modified using an amine-reactive, sulfosuccinimidyl ester of Texas Red™ (Molecular Probes, Inc., Cat. # C-1171). In brief, purified Hdm2-derived proteins were dialyzed into 100 mM sodium bicarbonate buffer, pH 8.3 at 2-4 mg/ml. The Texas Red™ dye was dissolved in dimethylsulfoxide at 10 mg/ml. Protein and dye 3:1 (vol:vol) were reacted for 1 hour at room temperature followed by purification using size-exclusion chromatography (NAP 5 G-25 columns, Amersham Pharmacia Biotech, Inc.). Labeled protein bands migrated more slowly than unlabeled protein in SDS-polyacrylamide gels consistent with the covalent attachment of dye.
NIH 3T3 Arf^−/− cells passage 10-15 were cultured in Dulbecco's modified Eagle's medium (Dulbecco's modified Eagle's medium (DMEM); Gibco-Invitrogen, Inc.), 10% fetal bovine serum (FBS) at 37° C., 7% CO2. 24 hours prior to transfection, cells were plated on 35 mm dishes coated with poly-D-Lysine (Mattek, Corp.) at a density of 3×10^4 cells per dish. […] An Axiovert 135 TV inverted fluorescence microscope with an automated stage controller (Carl Zeiss, Inc.) and circulating water bath heater (Fisher) was used for both microinjection and imaging. […]

Molecule	binding to His-tagged mArfN37 immobilized on the SPR biosensor surface [1]	localization of Texas Red labeled Hdm2 construct when GFP-p19^Arf is expressed [2]
B1	bind tightly	nucleolar localization
B2	–	localized in the nucleoplasm rather than in nucleoli
